Measured values published in publication PMC7736355.

How the values were obtained:
[1] = target: VP1 protein from GI.1 Norwalk strain (GI.1 WT) (human norovirus GI.1 Norwalk strain); assay: negative staining electron microscopy; VLP samples at ~0.1 mg/mL (0.01–0.05 mg/mL when fragments were present) in 10 mM HEPES pH 7.0, 150 mM NaCl; 0.75% uranyl formate; reference-free 2D class averages
[2] = target: VP1 protein from GI.1 Norwalk strain (GI.1 WT) (human norovirus GI.1 Norwalk strain); assay: SEC; analytical size-exclusion chromatography, Superdex 200 Increase 10/300 GL in PBS, 200 µg VLPs; fractions analysed by SDS–PAGE

## VP1 protein from GI.1 Norwalk strain (GI.1 WT) (natural protein)
[1]
  stoichiometry N: 2
[2]
  fraction of the sample present as VP1 dimers (rest in the void peak as non-dissociated VLPs): 20%
  stoichiometry N: 2
